According to patent US20250304666A1 (ALCHEMAB THERAPEUTICS, published 2025):
Changes are numbered by the printed parent chain.

B1: ATL_0004715 (antibody, human IgG1, kappa, V domains shown)
VH: EVQLVESGGGVVQPGRSLRLSCAASGFTFSRYGMHWVRQAPGKGLEWVAVMSYDGSTKYYADSVKGRFAISRDNPKNTLFLQMNSLRPDDTAVYYCAKGGAAAAVMDVWGKGTTVTVSS
VL: DIVMTQSPDSLTVSLGERATISCKSSQRLLYSSNNKNYLAWYQQKPGQPPKLLMYWASTRESGVPDRFSGSGSGTDFSLTISSLQAEDVAVYYCQQYYNPPWTFGQGTKVEVKR
notes: also called ATL4715
B2: ATL_0005155 (antibody, human IgG1, kappa, V domains shown)
VH: QVQLVESGGGVVQPGRSLRLSCAASGFTFSNYGMHWVRQAPGKGLEWVAVTSFDGKTKYYADSVKGRFTISRDNSKNTLYLQMNSLRAEDTAVYYCAKGGATAAVFDSWGQGTLVTVSS
VL: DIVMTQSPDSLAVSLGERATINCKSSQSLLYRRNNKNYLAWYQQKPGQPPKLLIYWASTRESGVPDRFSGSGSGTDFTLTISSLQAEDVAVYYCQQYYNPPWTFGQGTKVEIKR
notes: one of the 10 lead mAbs; IgG1; also called ATL5155; ATL_0005155-001
B3: ATL_0004894 (antibody, human IgG1, kappa, V domains shown)
VH: B2 VH with N31I, T51M
VL: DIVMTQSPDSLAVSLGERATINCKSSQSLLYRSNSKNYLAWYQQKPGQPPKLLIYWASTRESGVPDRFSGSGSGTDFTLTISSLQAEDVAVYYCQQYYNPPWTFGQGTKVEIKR
notes: germlined ATL4717, IgG1; also called ATL4894; 4894 IgG
B4: 4894 phage (scFv)
scFv displayed on phage: QVQLVESGGGVVQPGRSLRLSCAASGFTFSIYGMHWVRQAPGKGLEWVAVMSFDGKTKYYADSVKGRFTISRDNSKNTLYLQMNSLRAEDTAVYYCAKGGATAAVFDSWGQGTLVTVSGGGGSGGGGSGGGGSDIVMTQSPDSLAVSLGERATINCKSSQSLLYRSNNKNYLAWYQQKPGQPPKLLIYWASTRESGVPDRFSGSGSGTDFTLTISSLQAEDVAVYYCQQYYNPPWTFGQGTKVEIK
notes: also called phage displaying the ATL4894 scFv

Tests used:
reduced CFHR1 = biological target: T1, reduced CFHR1 (UniProt Q03591 19-330, limits assumed); experiment: ELISA, reduced antigen
T1 sequence (looked up): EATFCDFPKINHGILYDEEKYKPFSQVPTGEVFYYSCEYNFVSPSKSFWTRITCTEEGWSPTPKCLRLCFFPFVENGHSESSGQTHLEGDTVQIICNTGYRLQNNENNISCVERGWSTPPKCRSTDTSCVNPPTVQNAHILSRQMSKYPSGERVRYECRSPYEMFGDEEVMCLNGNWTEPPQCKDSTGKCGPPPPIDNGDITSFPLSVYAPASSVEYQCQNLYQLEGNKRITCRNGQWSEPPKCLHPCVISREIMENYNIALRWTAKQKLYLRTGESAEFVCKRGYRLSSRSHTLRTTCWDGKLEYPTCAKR

reduced CFHR2 = biological target: T2, reduced CFHR2 (UniProt P36980 19-270, limits assumed); experiment: ELISA, reduced antigen
T2 sequence (looked up): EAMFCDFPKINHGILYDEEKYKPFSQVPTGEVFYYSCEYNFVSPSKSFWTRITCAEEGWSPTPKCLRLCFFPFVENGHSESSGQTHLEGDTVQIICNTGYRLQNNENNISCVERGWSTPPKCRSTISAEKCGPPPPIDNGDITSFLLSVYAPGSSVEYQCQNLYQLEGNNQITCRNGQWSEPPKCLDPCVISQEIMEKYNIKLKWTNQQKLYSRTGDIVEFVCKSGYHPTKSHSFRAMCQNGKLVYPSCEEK

reduced CFHR3 [1] = biological target: T3, reduced CFHR3 (UniProt Q02985 19-330, limits assumed); experiment: ELISA, reduced antigen
T3 sequence (looked up): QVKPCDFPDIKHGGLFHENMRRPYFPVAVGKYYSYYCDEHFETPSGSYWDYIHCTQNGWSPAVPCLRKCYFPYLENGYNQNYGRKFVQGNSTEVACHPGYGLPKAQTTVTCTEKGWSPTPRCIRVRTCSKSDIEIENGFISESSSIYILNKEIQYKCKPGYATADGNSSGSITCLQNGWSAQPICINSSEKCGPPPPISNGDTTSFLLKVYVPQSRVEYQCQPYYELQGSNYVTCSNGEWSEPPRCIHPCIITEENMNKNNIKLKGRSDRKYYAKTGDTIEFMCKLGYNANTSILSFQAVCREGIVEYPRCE

reduced CFHR5 [2] = biological target: T4, reduced CFHR5 (UniProt Q9BXR6 19-569, limits assumed); experiment: ELISA, reduced antigen
T4 sequence (looked up): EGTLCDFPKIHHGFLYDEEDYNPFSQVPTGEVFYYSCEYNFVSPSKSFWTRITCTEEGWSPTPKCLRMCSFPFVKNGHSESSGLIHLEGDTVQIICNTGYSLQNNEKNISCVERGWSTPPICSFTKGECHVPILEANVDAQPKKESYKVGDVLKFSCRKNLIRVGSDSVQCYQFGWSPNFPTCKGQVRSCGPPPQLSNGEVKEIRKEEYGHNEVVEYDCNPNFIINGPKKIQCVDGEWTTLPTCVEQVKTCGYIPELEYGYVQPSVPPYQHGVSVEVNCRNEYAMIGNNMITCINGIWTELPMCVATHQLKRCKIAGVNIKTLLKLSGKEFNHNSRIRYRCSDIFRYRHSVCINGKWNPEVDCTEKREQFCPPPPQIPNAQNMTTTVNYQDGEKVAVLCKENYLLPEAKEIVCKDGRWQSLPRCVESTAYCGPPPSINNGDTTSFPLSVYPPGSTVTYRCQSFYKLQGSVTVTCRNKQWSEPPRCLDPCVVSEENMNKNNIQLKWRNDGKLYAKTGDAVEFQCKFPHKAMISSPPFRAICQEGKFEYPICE

reduced CFH [3] = biological target: T5, reduced CFH (Homo sapiens (Human), UniProt P08603 860-1231, limits assumed); experiment: ELISA, reduced antigen
T5 construct: also called CFH (reduced)
T5 sequence: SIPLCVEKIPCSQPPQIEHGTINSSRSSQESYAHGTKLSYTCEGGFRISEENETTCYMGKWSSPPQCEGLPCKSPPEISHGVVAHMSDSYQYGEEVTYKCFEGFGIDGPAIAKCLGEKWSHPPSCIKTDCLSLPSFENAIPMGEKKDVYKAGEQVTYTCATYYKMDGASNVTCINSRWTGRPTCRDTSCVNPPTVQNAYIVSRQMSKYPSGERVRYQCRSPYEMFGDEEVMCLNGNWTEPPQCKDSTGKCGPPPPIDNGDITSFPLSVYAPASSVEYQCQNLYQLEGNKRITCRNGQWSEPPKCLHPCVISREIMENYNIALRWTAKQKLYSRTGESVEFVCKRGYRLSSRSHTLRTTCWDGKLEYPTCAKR

non-reduced CFH = biological target: T6, non-reduced CFH; experiment: ELISA, non-reduced antigen
T6 construct: also called CFH (NON-REDUCED)
T6 chain: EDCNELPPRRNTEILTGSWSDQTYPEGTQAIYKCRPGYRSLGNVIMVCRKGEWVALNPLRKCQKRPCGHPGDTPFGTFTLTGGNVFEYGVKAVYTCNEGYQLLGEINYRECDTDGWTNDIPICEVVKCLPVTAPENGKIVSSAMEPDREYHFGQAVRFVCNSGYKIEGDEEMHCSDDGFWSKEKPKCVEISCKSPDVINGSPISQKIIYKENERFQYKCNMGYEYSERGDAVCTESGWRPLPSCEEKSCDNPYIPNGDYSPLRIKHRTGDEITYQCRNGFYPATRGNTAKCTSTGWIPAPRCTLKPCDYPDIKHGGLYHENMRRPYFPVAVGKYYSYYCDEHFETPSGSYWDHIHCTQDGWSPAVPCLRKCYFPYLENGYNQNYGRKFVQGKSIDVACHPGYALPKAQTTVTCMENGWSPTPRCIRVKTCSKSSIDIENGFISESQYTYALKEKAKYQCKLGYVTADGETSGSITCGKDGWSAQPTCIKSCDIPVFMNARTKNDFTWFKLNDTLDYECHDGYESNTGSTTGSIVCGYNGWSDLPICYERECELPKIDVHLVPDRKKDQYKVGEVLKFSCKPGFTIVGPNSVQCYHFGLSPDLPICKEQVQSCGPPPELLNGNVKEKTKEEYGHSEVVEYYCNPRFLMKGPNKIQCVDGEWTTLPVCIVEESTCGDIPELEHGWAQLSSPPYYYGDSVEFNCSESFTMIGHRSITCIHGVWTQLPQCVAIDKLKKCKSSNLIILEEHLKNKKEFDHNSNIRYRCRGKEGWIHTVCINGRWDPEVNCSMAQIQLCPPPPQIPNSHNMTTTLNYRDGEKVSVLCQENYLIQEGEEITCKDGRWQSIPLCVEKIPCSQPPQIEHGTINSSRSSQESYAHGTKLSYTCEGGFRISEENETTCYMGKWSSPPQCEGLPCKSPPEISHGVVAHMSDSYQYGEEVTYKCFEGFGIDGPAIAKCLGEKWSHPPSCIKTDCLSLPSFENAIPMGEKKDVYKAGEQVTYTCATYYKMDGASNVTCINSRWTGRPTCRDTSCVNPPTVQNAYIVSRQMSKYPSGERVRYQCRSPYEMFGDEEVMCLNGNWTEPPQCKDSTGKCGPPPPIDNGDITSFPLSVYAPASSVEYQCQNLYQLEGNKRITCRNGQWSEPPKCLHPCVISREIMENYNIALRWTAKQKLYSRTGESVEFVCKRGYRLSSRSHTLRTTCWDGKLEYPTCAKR

non-reduced CFHR1 = biological target: T7, non-reduced CFHR1; experiment: ELISA, non-reduced antigen
T7 construct: also called CFHR1 (NON-REDUCED)
T7 chain: T1 sequence (looked up)

non-reduced CFHR2 = biological target: T8, non-reduced CFHR2; experiment: ELISA, non-reduced antigen
T8 construct: also called CFHR2 (NON-REDUCED)
T8 chain: T2 sequence (looked up)

non-reduced CFHR3 = biological target: T9, non-reduced CFHR3; experiment: ELISA, non-reduced antigen
T9 construct: also called CFHR3 (NON-REDUCED)
T9 chain: T3 sequence (looked up)

non-reduced CFHR4 = biological target: T10, non-reduced CFHR4; experiment: ELISA, non-reduced antigen
T10 construct: not reduced; also called CFHR4 (NON-REDUCED)

non-reduced CFHR5 = biological target: T11, non-reduced CFHR5; experiment: ELISA, non-reduced antigen
T11 construct: also called CFHR5 (NON-REDUCED)
T11 chain: T4 sequence (looked up)

reduced CFH [4] = biological target: T5, reduced CFH; experiment: ELISA on reduced CFH after heating the mAb (70 C, 1 h, as Figure 16)
reduced CFHR3 [5] = biological target: T3, reduced CFHR3; experiment: ELISA on reduced CFHR3
reduced CFHR5 [6] = biological target: T4, reduced CFHR5; experiment: ELISA on reduced CFHR5
reduced CFHR5 [7] = biological target: T4, reduced CFHR5; experiment: phage ELISA on reduced CFHR5 [B]

Row | Binder | fold change vs isotype at 1 ug/ml (reduced CFHR1) | fold change vs isotype at 1 ug/ml (reduced CFHR2) | binding result (reduced CFHR3 [1]) | fold change vs isotype at 1 ug/ml (reduced CFHR3 [1]) | binding result (reduced CFHR5 [2]) | fold change vs isotype at 1 ug/ml (reduced CFHR5 [2]) | fold change vs isotype at 1 ug/ml (reduced CFH [3]) | fold change vs isotype at 1 ug/ml (non-reduced CFH) | fold change vs isotype at 1 ug/ml (non-reduced CFHR1) | fold change vs isotype at 1 ug/ml (non-reduced CFHR2) | binding result (non-reduced CFHR3) | fold change vs isotype at 1 ug/ml (non-reduced CFHR3) | fold change vs isotype at 1 ug/ml (non-reduced CFHR4) | binding result (non-reduced CFHR5) | fold change vs isotype at 1 ug/ml (non-reduced CFHR5) | Harsh Heat challenge ELISA value (reduced CFH [4]) | binding result (reduced CFHR3 [5]) | binding result (reduced CFHR5 [6]) | binding result (reduced CFHR5 [7])
1 | B1 | 22.9 fold | 9.9 fold | no binding (tested: 1 ug/ml) | 0.9 fold | no binding (tested: 1 ug/ml) | 1 fold | 17.2 fold | 10 fold | 10.1 fold | 3.9 fold | no binding (tested: 1 ug/ml) | 1 fold | 0.9 fold | no binding (tested: 1 ug/ml) | 0.9 fold | 0.09 | – | – | –
2 | B2 | 23 fold | 11.3 fold | – | 1 fold | – | 1 fold | – | – | 13 fold | 7 fold | no binding (tested: 1 ug/ml) | 1 fold | 1 fold | no binding (tested: 1 ug/ml) | 1 fold | – | no binding (tested: 100 ug/ml) | no binding (tested: 100 ug/ml) | –
3 | B3 | 24.4 fold | 10.3 fold | – | 1 fold | – | 1 fold | 18.4 fold | 9.8 fold | 16.6 fold | 7.7 fold | – | 1 fold | – | – | 0.9 fold | 0.58 | – | – | –
4 | B4 | – | – | – | – | – | – | – | – | – | – | – | – | – | – | – | – | – | – | no binding
